Results: patent US20260226161A1 (EXELIXIS, published 2026)

Columns and labels:
PD-L1 expressed on cells [1] = target: T1, PD-L1 expressed on cells (UniProt Q9NZQ7 19-290, limits assumed); test: cell-based or functional assay
PD-L1 expressed on cells [2] = target: T1, PD-L1 expressed on cells; test: flow cytometry on MC/CAR cells expressing PD-L1
Procedure: (§1) Cells were collected by centrifugation at 400×g for 7 minutes and primary antibody was removed. 50 μL per well of AF488 goat anti human IgG Fab (Jackson Immuno Research 109-547-003) at 1:100 dilution was added. Plates were placed at 4° C. for 30 minutes.
(§2) Cells were collected by centrifugation at 400×g for 7 minutes and secondary antibody was removed. Cells were resuspended in 50 μL per well of PBS and analyzed by flow cytometry. Binding curves were calculated using the mean fluorescence intensity (MFI) of the FITC fluorescence signal on the cells. Bispecific antibody binding was evaluated in KHYG-1 cells expressing endogenous NKG2A and in MC/CAR cells expressing PD-L1. Cells were harvested and assayed for binding as described above.

[3] = target: T2, Human NKG2A & CD94 with mouse IgG2a Fc tag (AcroBiosystems) (human, UniProt P26715 94-233; Q13241 32-179, limits assumed); test: SPR (Carterra), antibody on chip, soluble antigen
T2 construct: Bought soluble antigen of the Carterra assay; also called hNKG2A; not shown: mouse IgG2a Fc tag

[4] = target: T3, Human PD-L1 with His tag (AcroBiosystems) (human, UniProt Q9NZQ7 19-238); test: SPR (Carterra), antibody on chip, soluble antigen
T3 construct: Bought protein; also called hPD-L1; not shown: His tag

Cyno PD-L1 = Cyno PD-L1 (cyno, UniProt G7PSE7 19-238); test: SPR (Carterra), antibody on chip, soluble antigen
[5] = target: T4, NKG2A expressed on KHYG-1 cells (endogenous) (human, UniProt P26715 1-233; Q13241 1-179); test: flow cytometry on KHYG-1 cells expressing endogenous NKG2A
T4 construct: whole, on cells; Surface NKG2A copy number of approximately 10-20K; also called KHYG-1 cells expressing endogenous NKG2A; NKG2A-expressing cells
Procedure: as §1, §2

[6] = target: T5, cynomolgus NKG2A/CD94 (soluble antigen of the equilibrium assay) (cynomolgus, UniProt Q68VD2 94-233; Q68VD4 32-179, Biotinylated in the Octet assays of Example 2; state in the SPR equilibrium assay not seen.); test: SPR equilibrium response, Langmuir isotherm; antibody on chip, soluble antigen
T5 construct: also called Cyno NKG2A/CD94; copies: 1 + 1
Procedure: In addition, a method using an equilibrium approach was performed. Kd determinations for cynomolgus NKG2A/CD94 were performed by measuring the signal response at equilibrium. […] The equilibrium response signals and corresponding antigen concentrations were then input into a Langmuir binding isotherm model, and the Kd was determined through nonlinear regression. Averages and standard deviations were calculated from 24 replicate chip locations for each molecule.

[7] = target: T4, NKG2A expressed on KHYG-1 cells …; test: flow cytometry competition; inhibition of HLA-E tetramer binding to KHYG-1 cells; first of the two EC50 values printed for P12×A2; the patent does not say what tells them apart
Procedure: (§3) 15 μL per well of binder dilution at 2× concentration was plated in a 96-well plate (Costar 3897). 15 μL per well of cell suspension at 5×10⁶ cells per mL was added. Plates were placed at 4° C. for 30 minutes. Following the incubation, 5 μL per well of Fc block (BD Pharmingen Cat #564220) was added at a final concentration of 500 ng per well. Plates were placed at 4° C. for 10 minutes. […] Plates were placed at 4° C. for 1 hour. Following the incubation, 100 μL per well of PBS was added and plate was centrifuged at 400×g for 7 minutes. Supernatant was removed by flicking the plate. Cells were resuspended in 50 μL per well of PBS and analyzed by flow cytometry (Intellicyt).

[8] = target: T4, NKG2A expressed on KHYG-1 cells …; test: flow cytometry competition; inhibition of HLA-E tetramer binding to KHYG-1 cells; second of the two EC50 values printed for P12×A2; the patent does not say what tells them apart
Procedure: as §3

[9] = target: T6, biotinylated human NKG2C/CD94 heterodimer (extracellular domains, Fc fusions) (human, UniProt P26717 94-231; Q13241 32-179, biotinylated); test: BLI (Octet), bivalent
T6 construct: not shown: N-terminal Fc (hole)
Procedure: (§4) A total of 58 binders formatted as IgG antibodies from phage display as described in Example 1 were further tested for binding.
(§5) The antibodies were evaluated for binding to (1) human NKG2A, (2) human NKG2C, and (3) cyno NKG2A. Bivalent interaction of binders to biotinylated human NKG2A (see Example 1), biotinylated human NKG2C/CD94 heterodimer, or biotinylated cyno NKG2A/CD94 heterodimer immobilized on a streptavidin biosensor was monitored using Octet (Pall ForteBio) instrument. For these assays, human NKG2C/CD94 and cyno NKG2A/CD94 were prepared using the procedure as described in Example 1. Similarly, the extracellular domain of human NKG2C was expressed and purified from HEK293 cells as heterodimer with CD94 as Fc fusions. The extracellular domain of NKG2C used for selection campaigns encompassed amino acid sequence Ile94-Leu231 (Accession No. P26717-1; SEQ ID NO: 75). The gene encoding CD94 (Accession No. Q13241-1, SEQ ID NO:76), Lys33-Ile159 was synthesized from IDT and cloned into mammalian expression vector as an N-terminal Fc (hole) fusion. Plasmids encoding NKG2C-Fc fusion and CD94-Fc fusion were co-transfected into HEK293T cells using standard procedures. NKG2C/CD94 heterodimer was purified from cell supernatant using Protein A resins. Similar approach was used to obtain Cynomolgus NKG2A protein. Specifically, extracellular domain of Cynomolgus NKG2A contained amino acid Pro 94-Leu 233. […] Extracellular domain of Cynomolgus CD94 contained amino acid residues Lys 33-Ile 179 (Accession No. Q68VD4-1; SEQ ID NO: 78).

[10] = target: T7, biotinylated cyno NKG2A/CD94 heterodimer (extracellular domains) (cynomolgus, UniProt Q9MZJ3 94-233; Q9MZK9 32-179, biotinylated); test: BLI (Octet), bivalent
T7 construct: also called Cynomolgus NKG2A protein; not shown: fusion partner/tags ('similar approach' to the human proteins); fusion partner ('similar approach')
Procedure: as §4, §5

[11] = target: T4, NKG2A expressed on KHYG-1 cells …; test: flow cytometry on KHYG-1 cells expressing endogenous NKG2A; remark: listed apart in the source
Procedure: Antibodies that were selected for binding to NKG2A, for example, such as those described in Examples 1 and 2, were evaluated for binding to cells that express NKG2A.
Cells were harvested at 70-90% confluence on the day of the assay. Cells were collected by centrifugation at 200×g for 5 minutes and media was removed. Cells were resuspended at 2×10⁶ cells per mL in cold PBS. […] 50 μL per well of the antibody dilution was plated in a 96 well V-bottom plate (Costar 3897). 50 μL per well of cell suspension was added. Plates were placed at 4° C. for 45-60 minutes.

T3 sequence (Q9NZQ7 19-238 limits assumed): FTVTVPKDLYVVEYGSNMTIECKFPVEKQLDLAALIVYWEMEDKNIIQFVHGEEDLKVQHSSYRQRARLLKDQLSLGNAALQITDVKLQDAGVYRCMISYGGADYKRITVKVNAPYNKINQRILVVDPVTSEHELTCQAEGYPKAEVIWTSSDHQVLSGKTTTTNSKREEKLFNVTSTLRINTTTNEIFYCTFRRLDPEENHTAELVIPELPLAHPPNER
T2 sequence (P26715 94-233 limits assumed, chain 1 of 2): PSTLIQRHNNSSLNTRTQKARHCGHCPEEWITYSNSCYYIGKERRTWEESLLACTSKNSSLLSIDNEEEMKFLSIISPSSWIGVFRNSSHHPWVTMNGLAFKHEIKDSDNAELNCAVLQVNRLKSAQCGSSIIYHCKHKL
T2 sequence (Q13241 32-179 limits assumed, chain 2 of 2): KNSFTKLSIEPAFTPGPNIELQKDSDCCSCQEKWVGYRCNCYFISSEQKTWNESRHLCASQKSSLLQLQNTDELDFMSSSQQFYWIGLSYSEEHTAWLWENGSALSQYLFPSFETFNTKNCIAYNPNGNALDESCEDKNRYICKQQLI
Cyno PD-L1, sequence (G7PSE7 entry or part of it limits assumed): as the sequence (Q9NZQ7 19-238 limits assumed) above, with A33T, A34S, S62N, R68Q, Q82R, F173L, T185A, T192I, H215L counted along it
T4 sequence (P26715 whole entry, chain 1 of 2): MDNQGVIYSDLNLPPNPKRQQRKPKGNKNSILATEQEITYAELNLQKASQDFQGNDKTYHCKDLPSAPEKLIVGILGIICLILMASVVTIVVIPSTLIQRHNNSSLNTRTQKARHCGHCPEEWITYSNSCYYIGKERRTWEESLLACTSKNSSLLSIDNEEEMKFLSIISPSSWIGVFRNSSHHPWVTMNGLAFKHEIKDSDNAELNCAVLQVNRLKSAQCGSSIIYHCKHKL
T4 sequence (Q13241 whole entry, chain 2 of 2): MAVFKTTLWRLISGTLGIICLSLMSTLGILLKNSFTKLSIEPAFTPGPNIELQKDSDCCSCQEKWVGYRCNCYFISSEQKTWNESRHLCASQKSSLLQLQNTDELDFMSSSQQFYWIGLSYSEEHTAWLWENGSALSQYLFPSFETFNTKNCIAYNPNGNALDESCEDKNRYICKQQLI
T1 sequence (Q9NZQ7 19-290 limits assumed): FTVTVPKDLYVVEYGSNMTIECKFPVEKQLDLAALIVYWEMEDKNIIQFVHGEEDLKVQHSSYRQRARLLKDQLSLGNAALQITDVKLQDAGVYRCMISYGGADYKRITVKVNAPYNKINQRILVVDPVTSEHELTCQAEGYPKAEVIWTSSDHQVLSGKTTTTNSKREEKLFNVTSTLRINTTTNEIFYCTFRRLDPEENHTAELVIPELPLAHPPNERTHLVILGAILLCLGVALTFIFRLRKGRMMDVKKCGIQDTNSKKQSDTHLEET
T5 sequence (NKG2A, as listed by the source limits assumed, chain 1 of 2): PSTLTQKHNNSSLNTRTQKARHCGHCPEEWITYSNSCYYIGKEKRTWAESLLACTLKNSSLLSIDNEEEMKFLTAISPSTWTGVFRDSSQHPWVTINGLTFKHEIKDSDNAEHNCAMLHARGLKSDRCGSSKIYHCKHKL
T5 sequence (CD94, as listed by the source limits assumed, chain 2 of 2): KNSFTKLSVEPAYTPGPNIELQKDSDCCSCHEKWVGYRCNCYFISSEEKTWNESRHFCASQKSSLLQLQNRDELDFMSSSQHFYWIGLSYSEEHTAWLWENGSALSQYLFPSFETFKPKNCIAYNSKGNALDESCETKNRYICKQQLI
T7 sequence (Q9MZJ3 other isoform, or with tags, fused parts or gaps, chain 1 of 2): as the sequence (NKG2A, as listed by the source limits assumed, chain 1 of 2) above
T7 sequence (Q9MZK9 32-179, chain 2 of 2): as the sequence (CD94, as listed by the source limits assumed, chain 2 of 2) above
T6 sequence (P26717 other isoform, or with tags, fused parts or gaps, chain 1 of 2): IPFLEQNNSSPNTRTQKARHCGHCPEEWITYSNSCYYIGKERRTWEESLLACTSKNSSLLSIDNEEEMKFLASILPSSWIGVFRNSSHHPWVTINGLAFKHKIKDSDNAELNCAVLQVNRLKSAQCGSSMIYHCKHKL
T6 sequence (Q13241 32-179, chain 2 of 2): as the sequence (Q13241 32-179 limits assumed, chain 2 of 2) above

IC50 of inhibiting PD-1/PD-L1 interaction in PD-L1+MDA-MB-231 cells (PD-1/PD-L1 Signaling Bioassay, chemiluminescent signal) (PD-L1 expressed on cells [1]) [nM]	EC50 (PD-L1 expressed on cells [2]) [nM]	Kd [3] [nM]	koff [3] [s⁻¹]	kon [3] [M⁻¹ s⁻¹]	Kd [4] [nM]	koff [4] [s⁻¹]	kon [4] [M⁻¹ s⁻¹]	Kd (Cyno PD-L1) [nM]	koff (Cyno PD-L1) [s⁻¹]	kon (Cyno PD-L1) [M⁻¹ s⁻¹]	EC50 [5] [nM]	Kd [6] [nM]	EC50 [7] [nM]	EC50 [8] [nM]	binding result [9]	binding result [10]	EC50 [11] [nM]	Binder
0.408	55.9	0.21	8e-05	360000	0.13	7e-05	530000	0.1	6e-05	560000	4.66	42	21	65.2				P12 × A2 (1 × 1 format) (bispecific antibody, One PD-L1 site, one NKG2A site; also called P12×A2, sFc; P12 × A2 sFc) heavy 1: DIQMTQSPSSLSASVGDRVTITCRASQSVSSAVAWYQQKPGKAPKLLIYSASSLYSGVPSRFSGSRSGTDFTLTISSLQPEDFATYYCQQFMLEPITFGQGTKVEIKGQPREPQVCTLPPSRDELTKNQVSLTCLVRGFYPSDIAVEWESNGQPENNYKTTPPVLDSDGSFFLYSKLTVDKSRWQQGNVFSCSVMHEALHNHYTQKSLSLSPGKDKTHTCPPCPAPEAAGGPSVFLFPPKPKDTLMISRTPEVTCVVVDVSHEDPEVKFNWYVDGVEVHNAKTKPREEQYNSTYRVVSVLTVLHQDWLNGKEYKCKVSNKALKAPIEKTISKAKGQPREPQVYTLPPSREEMTKNQVSLSCAVKGFYPSDIAVEWESNGQPENNYKTTPPVLDSDGSFFLVSKLTVDKSRWQQGNVFSCSVMHEALHNHYTQKSLSLSPGK light 1: EVQLVESGGGLVQPGGSLRLSCAASGFTFSSYYIHWVRQAPGKGLEWVATINSRGGFTLYADSVKGRFTISADTSKNTAYLQMNSLRAEDTAVYYCARGYTLTPVLDYWGQGTLVTVSSAQPREPQVYTLPPCRDWLTKNQVSLTCLVKGFYPSDIAVEWESNGQPENNYKTTPPVLDSDGSFFLYSKLTVDKSRWQQGNVFSCSVMHEALHNHYTQKSLSLSPGK heavy 2: not shown light 2: EVQLVESGGGLVQPGGSLRLSCAASGFTFSSYYIHWVRQAPGKGLEWVASYVPEDGYTDYADSVKGRFTISADTSKNTAYLQMNSLRAEDTAVYYCARSSDFIPWTSSGGMDYWGQGTLVTVSSASTKGPSVFPLAPSSKSTSGGTAALGCLVKDYFPEPVTVSWNSGALTSGVHTFPAVLQSSGLYSLSSVVTVPSSSLGTQTYICNVNHKPSNTKVDKKVEPKSC
															no binding	no binding	4.35	Antibody Clone A11 (antibody, human IgG1, kappa, V domains shown) VH: EVQLVESGGGLVQPGGSLRLSCAASGFTFSWYYIHWVRQAPGKGLEWVAVIDPISSYTYYADSVKGRFTISADTSKNTAYLQMNSLRAEDTAVYYCARGFDRAMDYWGQGTLVTVSS VL: DIQMTQSPSSLSASVGDRVTITCRASKSVSSALAWYQQKPGKAPKLLIYVGSSRYSGVPSRFSGSRSGTDFTLTISSLQPEDFATYYCQQYYSSPYTFGQGTKVEIKR
